This is an account of results in US20060183125A1.

In assay [1] the target is murine TREM-1-Ligand (mouse). Description: flow cytometry, low Ly-6G peritoneal cell subset, control mouse.
Assay [2] deals with murine TREM-1-Ligand (mouse). Kind of assay: flow cytometry, peritoneal cells of a representative control mouse. Background: Flow cytometry measures light scatter and fluorescence of single cells or particles in a stream.
Assay [3] has as its target murine TREM-1-Ligand (mouse). Description: flow cytometry, low Ly-6G peritoneal cell subset, septic (CLP) mouse.
Assay [4] deals with murine TREM-1-Ligand (mouse). Kind of assay: flow cytometry, high Ly-6G peritoneal cell subset, septic (CLP) mouse.
The target in assay [5] is murine TREM-1-Ligand (mouse). Kind of assay: flow cytometry, peritoneal cells of a representative septic (CLP) mouse.
Assay [6] deals with murine TREM-1-Ligand (mouse). Description: flow cytometry, tetramer staining of blood cells of septic mice 6 hours after CLP induction.
Assay [7] addresses human TREM-1-Ligand (human). Kind of assay: flow cytometry on peripheral neutrophils of a sepsis patient, 1 µg huTREM-1/IgM.
In assay [8] the target is human TREM-1-Ligand (human). Description: flow cytometry on peripheral neutrophils of a sepsis patient, 0.2 µg huTREM-1/IgM.
Assay [9] concerns the target human TREM-1-Ligand (human). Kind of assay: flow cytometry, double staining with anti CD15, CD15 low neutrophils of a septic patient.
Assay [10] has as its target human TREM-1-Ligand (human). Kind of assay: flow cytometry, double staining with anti CD15, CD15 high neutrophils of a septic patient.

In the case of “murine TREM-1-Receptor/human IgG fusion protein (from UniProt Q9JKE2 21-202) (Fc fusion)”, the results for the frequency of double positive population in [1], in assay [3] and in assay [4] were 40%, 77% and 33%, respectively. The frequency of Ly-6G positive, murine TREM-1-Receptor/IgG positive cells in [2] is 8.8%; in assay [5] it was 35%. This substance also returned a percent of Ly-6G positive cells positive in [6] of 2%.
On to “human TREM-1-Receptor/human IgM fusion protein (from UniProt Q9NP99 21-200)”, for which the percent of cells stained positive came to 80% in assay [7] and 45% in [8]. The percentage of TREM-1-Ligand expressing cells in [9] was 38%; in [10] it was 2%.
